From IntAct's records for PubMed 28934384

B1: Protein kinase C epsilon type (Homo sapiens), Q02156 (parent)
chain: MVVFNGLLKIKICEAVSLKPTAWSLRHAVGPRPQTFLLDPYIALNVDDSRIGQTATKQKTNSPAWHDEFVTDVCNGRKIELAVFHDAPIGYDDFVANCTIQFEELLQNGSRHFEDWIDLEPEGRVYVIIDLSGSSGEAPKDNEERVFRERMRPRKRQGAVRRRVHQVNGHKFMATYLRQPTYCSHCRDFIWGVIGKQGYQCQVCTCVVHKRCHELIITKCAGLKKQETPDQVGSQRFSVNMPHKFGIHNYKVPTFCDHCGSLLWGLLRQGLQCKVCKMNVHRRCETNVAPNCGVDARGIAKVLADLGVTPDKITNSGQRRKKLIAGAESPQPASGSSPSEEDRSKSAPTSPCDQEIKELENNIRKALSFDNRGEEHRAASSPDGQLMSPGENGEVRQGQAKRLGLDEFNFIKVLGKGSFGKVMLAELKGKDEVYAVKVLKKDVILQDDDVDCTMTEKRILALARKHPYLTQLYCCFQTKDRLFFVMEYVNGGDLMFQIQRSRKFDEPRSRFYAAEVTSALMFLHQHGVIYRDLKLDNILLDAEGHCKLADFGMCKEGILNGVTTTTFCGTPDYIAPEILQELEYGPSVDWWALGVLMYEMMAGQPPFEADNEDDLFESILHDDVLYPVWLSKEAVSILKAFMTKNPHKRLGCVASQNGEDAIKQHPFFKEIDWVLLEQKKIKPPFKPRIKTKRDVNNFDQDFTREEPVLTLVDEAIVKQINQEEFKGFSYFGEDLMP
B2: Protein kinase C epsilon type (Homo sapiens), Q02156 (parent)
chain: B1 chain
partner: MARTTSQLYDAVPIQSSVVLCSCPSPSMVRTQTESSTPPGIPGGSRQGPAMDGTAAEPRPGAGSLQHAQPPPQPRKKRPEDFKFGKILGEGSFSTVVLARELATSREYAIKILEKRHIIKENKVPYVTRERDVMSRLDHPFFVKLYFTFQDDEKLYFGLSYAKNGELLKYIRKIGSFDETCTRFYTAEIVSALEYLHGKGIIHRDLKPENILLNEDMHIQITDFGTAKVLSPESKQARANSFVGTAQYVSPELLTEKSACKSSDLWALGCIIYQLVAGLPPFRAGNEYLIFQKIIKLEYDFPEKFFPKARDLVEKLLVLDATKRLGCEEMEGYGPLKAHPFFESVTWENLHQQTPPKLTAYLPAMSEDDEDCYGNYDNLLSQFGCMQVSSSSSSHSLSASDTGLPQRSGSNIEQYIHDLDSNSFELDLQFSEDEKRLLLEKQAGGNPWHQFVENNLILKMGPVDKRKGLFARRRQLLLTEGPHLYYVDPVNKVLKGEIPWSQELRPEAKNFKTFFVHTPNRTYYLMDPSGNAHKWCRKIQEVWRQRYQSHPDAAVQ

Variants of: B1
Settings: with sin1_human MAPKAP1, Q9BPZ7
Sequence of sin1_human MAPKAP1, Q9BPZ7 (Q9BPZ7 whole entry): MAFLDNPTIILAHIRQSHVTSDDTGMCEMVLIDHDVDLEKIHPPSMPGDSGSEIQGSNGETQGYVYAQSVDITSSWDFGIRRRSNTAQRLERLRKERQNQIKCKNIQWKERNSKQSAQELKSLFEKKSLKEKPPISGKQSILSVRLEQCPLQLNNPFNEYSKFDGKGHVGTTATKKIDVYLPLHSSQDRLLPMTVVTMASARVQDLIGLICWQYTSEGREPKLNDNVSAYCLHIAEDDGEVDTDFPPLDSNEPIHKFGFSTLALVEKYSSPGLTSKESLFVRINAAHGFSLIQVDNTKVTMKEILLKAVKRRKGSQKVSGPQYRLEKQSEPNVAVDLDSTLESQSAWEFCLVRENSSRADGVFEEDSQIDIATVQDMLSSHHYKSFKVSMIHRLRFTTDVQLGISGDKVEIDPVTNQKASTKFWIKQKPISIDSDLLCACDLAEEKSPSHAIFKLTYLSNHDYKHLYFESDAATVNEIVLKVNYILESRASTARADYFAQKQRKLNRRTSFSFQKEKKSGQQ

| Variant | effect of a mutation on the interaction |
| --- | --- |
| E599K | increasing interaction strength |

Variants of: B2
Settings: with pdpk1_human PDPK1, O15530

| Variant | effect of a mutation on the interaction |
| --- | --- |
| E599K | with no effect |
